The Kd is the concentration at which binding is half-saturated.

What all share (assay): SPR; Fc immobilised on a CM5 chip by amine coupling (400-1000 RU), mFcγRIV flowed over; Biacore T100; 25°C; 20 mM MOPS, 100 mM sodium chloride, 0.05% P20, 1 μM bovine serum albumin; mean of at least two independent experiments
Assay [1] has as its target mouse IgG2b Fc, truncated (1)GlcNAc N-glycan (mouse).
The target of assay [2] is mouse IgG2b Fc I300L, complex-type N-glycan (mouse).
The target of assay [3] is mouse IgG2b Fc I300L/K326R/D327A, complex-type N-glycan (mouse).
Assay [4] concerns the target mouse IgG2b Fc I300L, truncated (1)GlcNAc N-glycan (mouse).
Assay [5] concerns the target mouse IgG2c Fc L300I, truncated (1)GlcNAc N-glycan (mouse).
For assay [6], the target named is mouse IgG2b Fc I300L/K326R/D327A, truncated (1)GlcNAc N-glycan (mouse).
For assay [7], the target named is mouse IgG2c Fc L300I/R326K/A327D, complex-type N-glycan (mouse).
The target in assay [8] is mouse IgG2c Fc (residues 224-447), complex-type N-glycan (mouse).
In assay [9] the target is mouse IgG2c Fc (residues 224-447), truncated (1)GlcNAc N-glycan (mouse).
Assay [10] concerns the target mouse IgG2c Fc L300I, complex-type N-glycan (mouse).
In assay [11] the target is mouse IgG2b Fc, complex-type N-glycan (mouse).
Assay [12] deals with mouse IgG2c Fc L300I/R326K/A327D, truncated (1)GlcNAc N-glycan (mouse).

B1: mouse Fc γ receptor IV (receptor)
chain: QAGLQKAVVNLDPKWVRVLEEDSVTLRCQGTFSPEDNSIKWFHNESLIPHQDANYVIQSARVKDSGMYRCQTALSTISDPVQLEVHMGWLLLQTTKWLFQEGDPIHLRCHSWQNRPVRKVTYLQNGKGKKYFHENSELLIPKATHNDSGSYFCRGLIGHNNKSSASFRISLGD
Regarding B1, the dissociation constant Kd in assay [1] worked out at 2800 nM; in assay [2], 15 nM; in assay [3] it was 8 nM; in assay [4], 1800 nM; in assay [5], 1000 nM; in assay [6] it was 1300 nM. Further, the equilibrium dissociation constant (Kd) was found to be 9 nM in assay [7]; 12 nM in assay [8]; 600 nM in assay [9]; 9 nM in [10]; 18 nM in [11]; 1100 nM in assay [12].

The values above are taken from publication PMC5800599.
